From IntAct's records for PubMed 31515488

B1: Tripartite motif-containing protein 10 (Homo sapiens), Q9UDY6 (parent)
chain: MASAASVTSLADEVNCPICQGTLREPVTIDCGHNFCRACLTRYCEIPGPDLEESPTCPLCKEPFRPGSFRPNWQLANVVENIERLQLVSTLGLGEEDVCQEHGEKIYFFCEDDEMQLCVVCREAGEHATHTMRFLEDAAAPYREQIHKCLKCLRKEREEIQEIQSRENKRMQVLLTQVSTKRQQVISEFAHLRKFLEEQQSILLAQLESQDGDILRQRDEFDLLVAGEICRFSALIEELEEKNERPARELLTDIRSTLIRCETRKCRKPVAVSPELGQRIRDFPQQALPLQREMKMFLEKLCFELDYEPAHISLDPQTSHPKLLLSEDHQRAQFSYKWQNSPDNPQRFDRATCVLAHTGITGGRHTWVVSIDLAHGGSCTVGVVSEDVQRKGELRLRPEEGVWAVRLAWGFVSALGSFPTRLTLKEQPRQVRVSLDYEVGWVTFTNAVTREPIYTFTASFTRKVIPFFGLWGRGSSFSLSS
partner: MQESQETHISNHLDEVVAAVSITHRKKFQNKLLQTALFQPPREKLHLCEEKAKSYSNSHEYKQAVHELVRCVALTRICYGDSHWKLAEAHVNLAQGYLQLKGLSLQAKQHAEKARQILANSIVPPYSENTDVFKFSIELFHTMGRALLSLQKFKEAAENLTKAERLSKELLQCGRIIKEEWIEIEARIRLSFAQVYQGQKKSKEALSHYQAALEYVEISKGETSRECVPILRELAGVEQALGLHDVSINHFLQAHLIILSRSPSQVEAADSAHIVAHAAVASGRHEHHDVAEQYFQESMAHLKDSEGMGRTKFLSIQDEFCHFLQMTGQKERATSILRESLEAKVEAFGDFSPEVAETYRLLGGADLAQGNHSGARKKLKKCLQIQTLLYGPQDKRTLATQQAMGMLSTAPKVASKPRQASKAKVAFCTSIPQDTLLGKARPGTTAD
B2: Nuclear autoantigen Sp-100 (Homo sapiens), P23497 (parent)
chain: MAGGGGDLSTRRLNECISPVANEMNHLPAHSHDLQRMFTEDQGVDDRLLYDIVFKHFKRNKVEISNAIKKTFPFLEGLRDRDLITNKMFEDSQDSCRNLVPVQRVVYNVLSELEKTFNLPVLEALFSDVNMQEYPDLIHIYKGFENVIHDKLPLQESEEEEREERSGLQLSLEQGTGENSFRSLTWPPSGSPSHAGTTPPENGLSEHPCETEQINAKRKDTTSDKDDSLGSQQTNEQCAQKAEPTESCEQIAVQVNNGDAGREMPCPLPCDEESPEAELHNHGIQINSCSVRLVDIKKEKPFSNSKVECQAQARTHHNQASDIIVISSEDSEGSTDVDEPLEVFISAPRSEPVINNDNPLESNDEKEGQEATCSRPQIVPEPMDFRKLSTFRESFKKRVIGQDHDFSESSEEEAPAEASSGALRSKHGEKAPMTSRSTSTWRIPSRKRRFSSSDFSDLSNGEELQETCSSSLRRGSGSQPQEPENKKCSCVMCFPKGVPRSQEARTESSQASDMMDTMDVENNSTLEKHSGKRRKKRRHRSKVNGLQRGRKKDRPRKHLTLNNKVQKKRWQQRGRKANTRPLKRRRKRGPRIPKDENINFKQSELPVTCGEVKGTLYKERFKQGTSKKCIQSEDKKWFTPREFEIEGDRGASKNWKLSIRCGGYTLKVLMENKFLPEPPSTRKKRILESHNNTLVDPCEEHKKKNPDASVKFSEFLKKCSETWKTIFAKEKGKFEDMAKADKAHYEREMKTYIPPKGEKKKKFKDPNAPKRPPLAFFLFCSEYRPKIKGEHPGLSIDDVVKKLAGMWNNTAAADKQFYEKKAAKLKEKYKKDIAAYRAKGKPNSAKKRVVKAEKSKKKKEEEEDEEDEQEEENEEDDDK
partner: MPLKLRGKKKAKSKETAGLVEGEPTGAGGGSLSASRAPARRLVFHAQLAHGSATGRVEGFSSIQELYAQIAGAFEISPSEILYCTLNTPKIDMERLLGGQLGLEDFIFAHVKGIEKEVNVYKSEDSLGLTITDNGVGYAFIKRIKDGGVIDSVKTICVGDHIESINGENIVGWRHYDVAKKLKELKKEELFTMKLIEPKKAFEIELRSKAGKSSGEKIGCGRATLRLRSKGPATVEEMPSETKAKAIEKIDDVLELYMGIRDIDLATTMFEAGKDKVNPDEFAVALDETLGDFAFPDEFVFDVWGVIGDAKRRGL
B3: Forkhead box protein R1 (Homo sapiens), Q6PIV2 (parent)
chain: MGNELFLAFTTSHLPLAEQKLARYKLRIVKPPKLPLEKKPNPDKDGPDYEPNLWMWVNPNIVYPPGKLEVSGRRKREDLTSTLPSSQPPQKEEDASCSEAAGVESLSQSSSKRSPPRKRFAFSPSTWELTEEEEAEDQEDSSSMALPSPHKRAPLQSRRLRQASSQAGRLWSRPPLNYFHLIALALRNSSPCGLNVQQIYSFTRKHFPFFRTAPEGWKNTVRHNLCFRDSFEKVPVSMQGGASTRPRSCLWKLTEEGHRRFAEEARALASTRLESIQQCMSQPDVMPFLFDL
partner: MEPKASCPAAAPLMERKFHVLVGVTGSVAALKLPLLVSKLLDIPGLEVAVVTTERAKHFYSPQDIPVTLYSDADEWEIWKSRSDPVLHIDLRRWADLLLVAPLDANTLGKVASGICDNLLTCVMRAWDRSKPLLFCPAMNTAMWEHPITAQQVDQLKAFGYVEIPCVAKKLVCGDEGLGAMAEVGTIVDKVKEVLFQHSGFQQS
B4: Origin recognition complex subunit 6 (Homo sapiens), Q9Y5N6 (parent)
chain: MGSELIGRLAPRLGLAEPDMLRKAEEYLRLSRVKCVGLSARTTETSSAVMCLDLAASWMKCPLDRAYLIKLSGLNKETYQSCLKSFECLLGLNSNIGIRDLAVQFSCIEAVNMASKILKSYESSLPQTQQVDLDLSRPLFTSAALLSACKILKLKVDKNKMVATSGVKKAIFDRLCKQLEKIGQQVDREPGDVATPPRKRKKIVVEAPAKEMEKVEEMPHKPQKDEDLTQDYEEWKRKILENAASAQKATAE
partner: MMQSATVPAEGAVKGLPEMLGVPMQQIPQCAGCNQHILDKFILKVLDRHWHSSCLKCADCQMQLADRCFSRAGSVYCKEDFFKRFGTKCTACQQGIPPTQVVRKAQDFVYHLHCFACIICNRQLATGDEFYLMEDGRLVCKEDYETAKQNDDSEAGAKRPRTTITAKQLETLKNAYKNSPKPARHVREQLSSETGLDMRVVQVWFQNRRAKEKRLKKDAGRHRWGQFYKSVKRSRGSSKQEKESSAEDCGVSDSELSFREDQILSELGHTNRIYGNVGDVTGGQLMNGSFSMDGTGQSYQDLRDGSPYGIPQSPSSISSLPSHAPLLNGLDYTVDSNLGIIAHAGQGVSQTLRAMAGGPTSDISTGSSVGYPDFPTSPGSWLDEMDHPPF
B5: Notch homolog 2 N-terminal-like protein A (Homo sapiens), Q7Z3S9 (parent)
chain: MCVTYHNGTGYCKCPEGFLGEYCQHRDPCEKNRCQNGGTCVAQAMLGKATCRCASGFTGEDCQYSTSHPCFVSRPCLNGGTCHMLSRDTYECTCQVGFTGKECQWTDACLSHPCANGSTCTTVANQFSCKCLTGFTGQKCETDVNECDIPGHCQHGGTCLNLPGSYQCQCLQGFTGQYCDSLYVPCAPSPCVNGGTCRQTGDFTFECNCLPETVRRGTELWERDREVWNGKEHDEN
partner: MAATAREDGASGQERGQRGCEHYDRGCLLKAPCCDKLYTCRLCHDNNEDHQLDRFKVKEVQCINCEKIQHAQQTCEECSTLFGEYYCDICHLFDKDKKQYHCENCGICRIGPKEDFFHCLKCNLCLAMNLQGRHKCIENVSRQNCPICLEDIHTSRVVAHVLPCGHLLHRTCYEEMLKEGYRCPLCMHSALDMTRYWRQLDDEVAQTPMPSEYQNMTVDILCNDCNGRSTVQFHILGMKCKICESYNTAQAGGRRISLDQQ
B6: Probable RNA-binding protein EIF1AD (Homo sapiens), Q8N9N8 (parent)
chain: MSQATKRKHVVKEVLGEHIVPSDQQQIVRVLRTPGNNLHEVETAQGQRFLVSMPSKYRKNIWIKRGDFLIVDPIEEGEKVKAEISFVLCKDHVRSLQKEGFWPEAFSEVAEKHNNRNRQTQPELPAEPQLSGEESSSEDDSDLFVNTNRRQYHESEEESEEEEAA
partner: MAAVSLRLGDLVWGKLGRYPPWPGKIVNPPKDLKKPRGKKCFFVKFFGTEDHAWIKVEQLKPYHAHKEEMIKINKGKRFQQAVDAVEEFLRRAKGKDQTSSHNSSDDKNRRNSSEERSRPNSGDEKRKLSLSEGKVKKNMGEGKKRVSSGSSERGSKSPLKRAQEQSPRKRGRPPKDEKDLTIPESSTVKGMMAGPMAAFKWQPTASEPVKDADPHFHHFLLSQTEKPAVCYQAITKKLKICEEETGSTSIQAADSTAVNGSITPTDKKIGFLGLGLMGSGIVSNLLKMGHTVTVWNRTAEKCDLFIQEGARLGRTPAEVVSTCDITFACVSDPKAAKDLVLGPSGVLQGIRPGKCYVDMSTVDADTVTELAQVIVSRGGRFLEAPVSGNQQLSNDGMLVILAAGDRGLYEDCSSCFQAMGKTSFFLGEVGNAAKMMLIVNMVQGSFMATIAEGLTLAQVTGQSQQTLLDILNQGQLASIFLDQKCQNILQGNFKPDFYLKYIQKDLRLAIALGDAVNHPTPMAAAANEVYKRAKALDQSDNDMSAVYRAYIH

Variants of: B1
Conditions: with ttc23_human TTC23, Q5W5X9

Variant | effect of a mutation on the interaction
Q210L | with no effect
R216K | with no effect
I236T | disrupting interaction strength

Variants of: B2
Conditions: with gipc2_human GIPC2, Q8TF65

Variant | effect of a mutation on the interaction
M433V | with no effect

Variants of: B3
Conditions: with coac_human PPCDC

Variant | effect of a mutation on the interaction
A8T | with no effect
E18G | disrupting interaction strength
W127C | with no effect

Variants of: B4
Conditions: with lhx4_human LHX4, Q969G2

Variant | effect of a mutation on the interaction
K201N | with no effect

Variants of: B5
Conditions: with zn363_human RCHY1, Q96PM5

Variant | effect of a mutation on the interaction
R74Q | with no effect
A115T | with no effect

Variants of: B6
Conditions: with glyr1_human GLYR1, Q49A26

Variant | effect of a mutation on the interaction
R48C | with no effect
